These results are taken from PMC11084278 (International Journal of Molecular Sciences, 2024).

Marks after values point to notes of the source that are not given here.

Test [1] has as its target T1, NLuc-CXCR3 (Homo sapiens, UniProt P49682).
T1 construct: 5HT3a signal peptide (N); expressed in transfected cells; host or cells: HEK293T, transient; membrane preparation
T1 sequence (P49682 2-368 limits assumed): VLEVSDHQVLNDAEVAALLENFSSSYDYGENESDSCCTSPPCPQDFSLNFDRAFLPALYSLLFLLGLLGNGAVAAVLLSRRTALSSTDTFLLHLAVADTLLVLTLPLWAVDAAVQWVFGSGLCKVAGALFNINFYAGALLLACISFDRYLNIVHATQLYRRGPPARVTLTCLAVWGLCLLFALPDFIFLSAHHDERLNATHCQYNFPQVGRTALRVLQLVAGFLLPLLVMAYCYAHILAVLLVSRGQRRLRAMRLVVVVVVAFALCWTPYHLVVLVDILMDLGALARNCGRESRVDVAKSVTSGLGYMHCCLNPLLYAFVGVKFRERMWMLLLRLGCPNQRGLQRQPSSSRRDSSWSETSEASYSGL
Put plainly: Multiplex NanoBRET binding, mixed NLuc-CXCR3 and NLuc-CXCR4 membranes, read at 520 nm (CXCL10-AZD488). Particulars: mixed (1:1) NLuc-CXCR3 and NLuc-CXCR4 membranes; both CXCL10-AZD488 and CXCL12-AZD647, 10 nM each. As to the method:
(§1) HEK293T cells (2 × 10^6) were seeded in 10 cm^2 culture dishes. After 24 h, the cells were transfected with 0.25 µg of plasmid DNA encoding human NLuc-ACKR3, NLuc-CXCR4 or NLuc-CXCR3, and 4.75 µg of pcDEF3 plasmid DNA using 30 µg of linear PEI. After two days, the cells were collected in PBS and centrifuged at 2700 rpm at 4 °C. Next, the cell pellet was resuspended in ice-cold membrane buffer (15 mM of Tris, 0.3 mM of EDTA, 2 mM of MgCl2, pH 7.4 at 4 °C) and homogenized by plunging the pestle using 10 strokes at 1100 rpm. The cell homogenates were exposed to two freeze and thaw cycles using liquid nitrogen and were centrifuged at 25,000 rpm. The pellet was resuspended in Tris-sucrose buffer (20 mM of Tris, 250 mM of Sucrose, pH 7.4 at 4 °C). Finally, cell membranes were homogenized using a 23-gauge needle, followed by snap-freezing with liquid nitrogen and then stored at −80 °C.
(§2) NanoBRET was measured after 1 h of incubation at room temperature, as described above.
For saturation binding experiments, the KD was obtained using one-site total and non-specific binding. For binding experiments, pIC50 values were obtained using a one-site pIC50 model. The equilibrium dissociation constants (Ki) of unlabeled ligands were subsequently calculated using the Cheng−Prusoff equation. […]
On the technique in general: In BRET a luciferase serves as donor, and the signal depends on an acceptor being close.

For test [2], the target named is T1, NLuc-CXCR3. The test can be described thus: NanoBRET competition binding versus CXCL10-AZD488 on NLuc-CXCR3 membranes only (520 nm). The protocol:
as §1, §2
(§3) For saturation binding experiments, the KD was obtained using one-site total and non-specific binding. For binding experiments, pIC50 values were obtained using a one-site pIC50 model. The equilibrium dissociation constants (Ki) of unlabeled ligands were subsequently calculated using the Cheng−Prusoff equation. (1) […] where [L] is the concentration of the labeled ligand and KD is the equilibrium dissociation constant of the labeled ligand.

Test [3] addresses T2, NLuc-CXCR4 (Homo sapiens, UniProt P61073). The test can be described thus: Multiplex NanoBRET binding, mixed NLuc-CXCR3 and NLuc-CXCR4 membranes, read at 640 nm (CXCL12-AZD647). More on the design: 5HT3a signal peptide (N); host or cells: HEK293T, transient; membrane preparation. Particulars: mixed (1:1) NLuc-CXCR3 and NLuc-CXCR4 membranes; both CXCL10-AZD488 and CXCL12-AZD647, 10 nM each. As to the method: as §1, with “After 24 h, the cells were transfected with 0.25 µg of plasmid DNA encoding human NLuc-ACKR3, NLuc-CXCR4 or NLuc-CXCR3, and 4.75 µg of pcDEF3 plasmid DNA using 30 µg of linear PEI.” left out
as §3

In test [4] the target is NLuc-ACKR3 (Homo sapiens, UniProt P25106). The test can be described thus: NanoBRET competition binding versus AZDye-labeled CXCL12 on NLuc-ACKR3 membranes. Further details: 5HT3a signal peptide (N); host or cells: HEK293T, transient; membrane preparation. The protocol: as §1, with “After 24 h, the cells were transfected with 0.25 µg of plasmid DNA encoding human NLuc-ACKR3, NLuc-CXCR4 or NLuc-CXCR3, and 4.75 µg of pcDEF3 plasmid DNA using 30 µg of linear PEI.” left out
All experiments were analyzed using Graphpad Prism 9.0. For binding experiments, pIC50 values were obtained using a one-site pIC50 model using global fitting with shared non-specific binding values.
as §3

The next test addresses CXCR4 (Homo sapiens, UniProt P61073). Put plainly: CXCR4-mediated inhibition of isoprenaline-induced intracellular cAMP (FRET-based EPAC sensor) in HEK293 cells. Format: cell-based. Particulars: HEK293 cells stably expressing CXCR4 and EPAC sensor; 100 nM isoprenaline; mean ± SD. As to the method: Human embryonic kidney 293 cells stably co-expressing CXCR4 and the FRET-based EPAC sensor with mCerulean and mCitrine as a FRET pair were kindly provided by Dr. M. Zimmermann (Interax Biotech, Zurich, Switzerland), and were cultured in DMEM supplemented with 10% FBS and penicillin ([…]), streptomycin ([…]), zeocin (0.06 mg/mL) and G418 (0.6 mg/mL) at 37 °C with 5% CO2.
HEK293 cells stably expressing CXCR4 and a FRET-based EPAC sensor were seeded into a 96-well black plate (0.5 × 10^6/well). […] Fluorescence was measured using the following parameters: excitation at 430–15 nm, and emission at 530–20 and 480–20 nm using the CLARIOstar Plus (BMG Labtech, Ortenberg, Germany). The FRET ratio was calculated by dividing the signal of the acceptor at 530 nm by the donor signal at […].

Test [5] addresses T2, NLuc-CXCR4. The test can be described thus: NanoBRET saturation binding to HEK293T membranes expressing NLuc-CXCR4. More on the design: 5HT3a signal peptide (N); host or cells: HEK293T, transient; membrane preparation. Particulars: non-specific binding with 10 µM IT1t, mean ± SD. The protocol:
as §1, with “After 24 h, the cells were transfected with 0.25 µg of plasmid DNA encoding human NLuc-ACKR3, NLuc-CXCR4 or NLuc-CXCR3, and 4.75 µg of pcDEF3 plasmid DNA using 30 µg of linear PEI.” left out
as §3

Test [6] has as its target HA-tagged ACKR3 C-terminally fused to SmBit (UniProt P25106).
The target of test [7] is T2, NLuc-CXCR4.
Test [8] deals with T2, NLuc-CXCR4. Put plainly: FRET or BRET; NanoBRET competition binding against CXCL12-AZD488 (0.3 nM on NLuc-ACKR3, 10 nM on NLuc-CXCR4 HEK293T membranes) with increasing unlabeled ligand; HBSS with 0.2% BSA; 1 h at room temperature; Ki by Cheng-Prusoff.
In test [9] the target is T2, NLuc-CXCR4. The test can be described thus: FRET or BRET; NanoBRET competition binding against CXCL12-AZD546 (0.3 nM on NLuc-ACKR3, 10 nM on NLuc-CXCR4 HEK293T membranes) with increasing unlabeled ligand; HBSS with 0.2% BSA; 1 h at room temperature; Ki by Cheng-Prusoff.
Test [10] has as its target T2, NLuc-CXCR4. Put plainly: FRET or BRET; NanoBRET competition binding against CXCL12-AZD594 (0.3 nM on NLuc-ACKR3, 10 nM on NLuc-CXCR4 HEK293T membranes) with increasing unlabeled ligand; HBSS with 0.2% BSA; 1 h at room temperature; Ki by Cheng-Prusoff.
For test [11], the target named is T2, NLuc-CXCR4. The test can be described thus: FRET or BRET; NanoBRET competition binding against CXCL12-AZD647 (0.3 nM on NLuc-ACKR3, 10 nM on NLuc-CXCR4 HEK293T membranes) with increasing unlabeled ligand; HBSS with 0.2% BSA; 1 h at room temperature; Ki by Cheng-Prusoff.
The target in test [12] is T3, NLuc-ACKR3 (human, UniProt P25106 1-362).
T3 construct: ACKR3 (CXCR7), human; NLuc is preceded by the 5HT3a signal peptide and fused via a Gly-Ser linker (BamHI site) to ACKR3, in pcDNA3.1; also called CXCR7; source: HEK293T, transiently transfected, membrane preparation; not shown: NLuc, N-terminal, kept
The test can be described thus: FRET or BRET; NanoBRET competition binding against CXCL12-AZD488 (0.3 nM on NLuc-ACKR3, 10 nM on NLuc-CXCR4 HEK293T membranes) with increasing unlabeled ligand; HBSS with 0.2% BSA; 1 h at room temperature; Ki by Cheng-Prusoff. Particulars: one partner purified.

The target in test [13] is T3, NLuc-ACKR3. Put plainly: FRET or BRET; NanoBRET competition binding against CXCL12-AZD546 (0.3 nM on NLuc-ACKR3, 10 nM on NLuc-CXCR4 HEK293T membranes) with increasing unlabeled ligand; HBSS with 0.2% BSA; 1 h at room temperature; Ki by Cheng-Prusoff. To be noted: one partner purified.
Test [14] has as its target T3, NLuc-ACKR3. Put plainly: FRET or BRET; NanoBRET competition binding against CXCL12-AZD594 (0.3 nM on NLuc-ACKR3, 10 nM on NLuc-CXCR4 HEK293T membranes) with increasing unlabeled ligand; HBSS with 0.2% BSA; 1 h at room temperature; Ki by Cheng-Prusoff. To be noted: one partner purified.
Test [15] deals with T3, NLuc-ACKR3. The test can be described thus: FRET or BRET; NanoBRET competition binding against CXCL12-AZD647 (0.3 nM on NLuc-ACKR3, 10 nM on NLuc-CXCR4 HEK293T membranes) with increasing unlabeled ligand; HBSS with 0.2% BSA; 1 h at room temperature; Ki by Cheng-Prusoff. Particulars: one partner purified.
Where [16] appears, read: 0.3 nM probe, Cheng-Prusoff, mean ± SD.

`CC1(C)CN2C(CSC(=NC3CCCCC3)NC3CCCCC3)=CSC2=N1` [IT1t]: the “pKi, Multiplex at 520 nm” value at NLuc-CXCR3 [1] was “no clear competition binding curve was detected”.
`CCNC(=O)c1cnc(N2CCN(C3CCN(Cc4ccc(Cl)cc4)CC3)[C@@H](CC)C2)c(Cl)c1` [VUF11211]: on NLuc-CXCR3 [2] (10 nM CXCL10-AZD488, NLuc-CXCR3 membranes only), the “pKi, CXCR3 Only at 520 nm” value turned out to be 8.8 ± 0.2. On NLuc-CXCR3 [2] (comparison with ref 23), the “fold higher than the Ki from competition binding with [125I]-CXCL11” value is reported as 10 fold and the “fold lower than the Ki from competition binding with [3H]-VUF11211” value was determined as 1.5 fold. Besides, the “pKi, Multiplex at 520 nm” value at NLuc-CXCR3 [1] was 8.8 ± 0.1. The “pKi, Multiplex at 640 nm” value on NLuc-CXCR4 [3] is given as “no clear competition binding curve was detected”.
Take `COc1cc(C(=O)N(CCC2CCCN2C)CC(C)=Cc2ccccc2F)cc(OC)c1OC` (centres unmarked) [VUF15485]: at NLuc-ACKR3 [4] (setting [16]), the “Binding affinity (pKi) for NLuc-ACKR3, probe CXCL12-AZD488” value was 7.9 ± 0.1 ^b; the “Binding affinity (pKi) for NLuc-ACKR3, probe CXCL12-AZD546” value is 7.9 ± 0.1; the “Binding affinity (pKi) for NLuc-ACKR3, probe CXCL12-AZD594” value is 8.1 ± 0.2; the “Binding affinity (pKi) for NLuc-ACKR3, probe CXCL12-AZD647” value turned out to be 8.2 ± 0.1. Besides, on NLuc-ACKR3 [4] (compared with the other three probes), the “fold lower affinity for ACKR3 when tested in competition with CXCL12-AZD488” value is listed as 5 fold.
“CXCL12-AZD546: CXCL12 tagged at the C-terminus with fluorescent AZDye 546 by click chemistry”: in the test with CXCR4, the “cAMP by CXCR4 (pEC50)” value was found to be 8.6 ± 0.3. Also, the “pKD for CXCR4” value with NLuc-CXCR4 [5] is 8.0 ± 0.0.
For the molecule “CXCL12-AZD594: CXCL12 tagged at the C-terminus with fluorescent AZDye 594 by click chemistry”, in the test with CXCR4, the “cAMP by CXCR4 (pEC50)” value stood at 8.9 ± 0.2. Moreover, the “pKD for CXCR4” value with NLuc-CXCR4 [5] is 7.6 ± 0.1.
Take “CXCL12-AZD647: CXCL12 tagged at the C-terminus with fluorescent AZDye 647 by click chemistry”: the “pKD for CXCR4” value with NLuc-CXCR4 [5] is on record as 7.9 ± 0.1.
As to “Human recombinant CXCL12 (unlabeled) (from UniProt P48061 22-93) (ligand)”, the pEC50 of β-arrestin2 recruitment to ACKR3 (NanoBiT complementation, HEK293T cells) in [6] amounted to 8. The same molecule registered a pEC50 of inhibition of isoprenaline-induced cAMP (FRET-based EPAC sensor) in HEK293 cells stably expressing CXCR4 (not the NLuc fusion) in the test with NLuc-CXCR4 [7] of 9.7. The pKi in the test with NLuc-CXCR4 [8] came to 8.4; with NLuc-CXCR4 [9], 9; with NLuc-CXCR4 [10], 8.2; in the test with NLuc-CXCR4 [11], 8.4.

B1: CXCL11 (unlabeled) (ligand, UniProt O14625 22-94, looked up)
chain: FPMFKRGRCLCIGPGVKAVKVADIEKASIMYPSNNCDKIEVIITLKENKGQRCLNPKSKQARLIIKKVERKNF
notes: CXCL11, unlabeled chemokine
For B1, the pKi turned out to be 9.4 with NLuc-ACKR3 [12], 9.4 with NLuc-ACKR3 [13], 9.5 in the test with NLuc-ACKR3 [14] and 9.2 with NLuc-ACKR3 [15].

The term pKi denotes −log10 of the Ki, conventionally taken in molar units. Low values mean a high Ki, high ones a low Ki.
